Laboratory results reported in the DeepSol protein solubility set.

experiment: soluble on expression in E. coli; label from the status in PepcDB or PDB records

Soluble on expression in E. coli, not soluble:
MGSDKIHHHHHHMTHDTSPIHRTIELPDELLVGAIDTHIHSGPWLKSCPGRLDPFQIAEQAKQAGMRAVVFYDHTFGNSAGTSWMVRRSVPGIDVYGGIILTTNFGGMNPRAVKTALHYGDGAKFVHFGTHCTYHMASREGSYVDGKPVPFKDLYPKFAEQELARAIRIPLDGPVPGELEEILGLVAGHPDVYLNTGHISPGEVMRLAELAERFGIRKMIVAHPARAWLSTAQQKDLSARGFFLEGSVSDWLFHRGLPRTNYYVEREYADEIAGIANEPQFQGVVQWASQLREVGLANVVLGTDYGIGSCPAPREGMRLLISTLLDLQFSLAEIELLTRRNPARLLGLE
MGSDKIHHHHHHMTITPHTLAVWADDQRAGLLDRSIDQHQYVFAYDPAAESPSAQVSLTMPVRLESWASRDLHPIFQMNLPEGALLEAIRRTVSKLIGEDDLTILRVTGGNQVGRNRFSLAADPAPGIVETKESLDELLSYPDTEELFNDLVAKYALRSGVSGVQPKVMLDATERGTAAVGGYIVKSWGSEYPQLAANEFFCMTAAKRAGLSVPEFHLSENGGLFVMKRFDLGERGEPLGFEDICSLQALATTRKYSSTYERVARTIKDFVSPAALLVAREQFFASLVLSCMVRNGDAHLKNFGVLYDRPGQLVQLAPVYDVVTTTAYIPKDVPALSLFGTKKWWSRRALERFAVSHLSLPVGRVGQILEKVAEAVTDTRGIVSAYMVEHPEYREVGNLQLASWEVGVANLVLI
MGSDKIHHHHHHMTIVSAFLLPGSPLPQLRPDITPWGRIREGLSRAGKALAESKPDCVLVYSTQWFAVLDQLWITRARSTGVHVDENWHEFGEQAFDIHSDCALAQRCVDACNAAGIKTRGVDYDQFPIDTGTITATTLMGFGSASLPVVIAANNLYHSAEQTEQLGAIASAALQDKRAAVLGIGGLSNSAFRENIDLEKDHILSEADDKWNQRVLALMESGDIEAIRAILPQYSTEARPDMGLKHFYWLLGAMNASFKKATVHEYAPLYGSGGAIVQFDVQ
MGSDKIHHHHHHMTKFSVYIGIDWANDKHDVCVQVANSSARKFEVIKHSPKSINEWITSLHKQYKGQIAVAIELSKGPIVYALQKFDFITIHPVNTSMLAQYRKAFSPSGAKDDPTDAELALDLMLRYPNKIKALKMDSESVRKLTYLVEQRRKLVDDKRRFSNRLIITLKEYYPHLLDWFSHRGSGIFCDFITRWPNLQKLKRARADTLKKFFGSYPGRTAAYSVKRIQSISEAEPLTLDNAVIESHQLLAVALANQLLVAVKVIKVFDREISELFNALPDAELYKSLPGTGPCLAPRLLVAIGENRSRFNSASEIQMYAVIAPVTVRSGQKSWIHWRYQCSKFTRQSFIEWATKSIRQSYWAEIYYQQQREKGNTHQAAVRSLAFKWIRIIYRCWKTKEPYNEAKYLKALSDRNSPLLFKEKAC
MGSDKIHHHHHHMTLQQLRQVLTIAESNSMNEAAKKLFVSQPNLSATVREVEEELGITVFMRNNRGITVTAEGEEFLGYAKQVVEQYHLLENRYLNVESKKKFSVSMQHYSFAVKAFVQLAKEVGMDEYEFAVHETKTKEVIDNVKNLKSEIGVLYLSDFNEKVLRKLFKECDIEFKELFTCNTYVYLWKKHPLAGQKEITLDDLQEYPCLTFEQGVNNSFYYAEEMMSTYEYKRVIKADDRATMLNLMVGLNGFTLCSGIISEDLNGDDYAAIPLKESEKMHIGYIKHKGTKLSKLGEIYIDALKNYENKVL
MGSDKIHHHHHHMTLRERRQKHKAQFRQEILDASRELFSQIGYERFSMRKLAAKIEHSPTTIYLYFRDKDDLLYSLCEELFAKLFQSYQDISRGENDPRQVLRLCLLRYIEFGLANPGHYKVAFFTSPVVYGSPTEFLQKDSMGRRTYFHILRTVEETMAAGMLRPMDADLLAQTVWVAAHGVVTSRIYSADFPMVDAVLQAETLVDGLLAGFSVKNFFGTNIYTVN
MGSDKIHHHHHHMTMTDERPVLVATEADDITADMVITELNRRDVPVVRFNLADIGEGLTVSARFGTCPAPVVGQVRTSSRTADLTRVRSVYWRRPEWPSFPHLSPDDSRFAAAQVRYGLGGTLYALDHPLWVNHPLRIAAADYKPAQLALAQQLGFTIPTTLVTNDPAEAREFIRTQGDVIFKTLRWTPYTRDGVPVTGWADPVTADEIDDNVRITPHLFQARVDKVTDLRVLIVGQHTFAVRIDSELLDWRRDYSVLTYTVEHLPDSVDKALHAYLDRLELVSGSFDLTVDRAGVYWWLELNPNGQWGWLEKETGLPMSAAFADLLVQGDRQ
MGSDKIHHHHHHMTMVLDQVVPFGRSMDEYIKIFNLTDADLNKKIIGIGDGPASFNAEMTRQGKSVISVDPLYQFSGDEILQRFNEVLDNIINQVKATSNNWVWSYHKSPDDLRHNRVKVIREFLSDYENGKKSNRYIVDEFPKLKFKTQEFEIALCSHLLFLYSDHLDYDFHLNSIGEMLRIAKEIRIFPLITLMWKHSQHLDEIVKHYTSIGYKIDIENVEYELQPGGNKMLKITRDFYKNHNL
MGSDKIHHHHHHMTNLVTLENVSVAFGQRRVLSDISLALTPGKILTLLGPNGAGKSTLVRVVLGLVAPTEGVIKRDARLRIGYVPQKLHLDATLPLTVSRFLRLRPGTRKDDILPALKRVQAGHLIDAPMQKLSGGETQRVLLARALLNRPQLLVLDEPTQGVDVNGQVALYDLINQLRHELDCAVLMVSHDLHLVMAKTDEVLCLNQHICCSGAPEVVSMHPEFISMFGPRGAEQLGIYRHHHNHRHDLQGRIVLRRGNSR
MGSDKIHHHHHHMTPDQYCQEKAVQSGSSFYYSFLYLPPERRRAITALYAFCREVDDVVDECTEASVARVKLAWWRQEVAAIFDAGGNKPSHPVAQALAGVASTFNLTADRLNEIIDGMEMDLDYNRYADFDTLRHYCYHVASVVGLCSAEIFGYRNPKTLEYAQDLGLAFQLTNIIRDVGEDARRDRIYLPQDELARFGVSNEDILQSRETDNFRRLIEFQIDRAESYYANAFAALPEEDRKSQRSGIIMAAIYQALLKEIKADGCHVMRQRISLTPLRKLWIAWKTWMKG
MGSDKIHHHHHHMTPIAQRDGQAIQLVGFDGDDTLWKSEDYYRTAEADFEAILSGYLDLGDSRMQQHLLAVERRNLKIFGYGAKGMTLSMIETAIELTEARIEARDIQRIVEIGRATLQHPVEVIAGVREAVAAIAADYAVVLITKGDLFHQEQKIEQSGLSDLFPRIEVVSEKDPQTYARVLSEFDLPAERFVMIGNSLRSDVEPVLAIGGWGIYTPYAVTWAHEQDHGVAADEPRLREVPDPSGWPAAVRALDAQAGRQQ
MGSDKIHHHHHHMTPSAGLGLKSQHYGDAIACDAEGLWFEVHPENYMSAGGPRLAALEAVRARRPVSLHGVGLSLAADTDPDPEHLQALKRLVDRFDPFVVSEHLAWSTHRGAHHPDLLPFPRTRAALDRICGNVARMQDALQRRVLIENPSLYLPLKGHALDEVDFLEALATRTGCGLLVDVNNVFVSAQNLGYAPETYLDALPAHAIGEIHLAGHAPDPGGSNLLIDTHGAPVAEVVWTLYARLIARIGPRPTLIERDDDIPDFAALMAERNRAVAVLASGQTAREPAHV
MGSDKIHHHHHHMTQNLRVIIDARMVNKHLHGIARYTYEIIKHMSYEDNVEMILLVNDLEEASKIFGQFNNIKFKRMRSKFLSIFEQIELPMIVNKYKNMAIFHSPSFVASPFIKCKMIMTIHDLNHLKFPQYYTPFHKYYYKYIVKKCALKSKKILTVSEFSKEEIFKWIKCDRDKIKVTYNGIDPKFHVISDAEKLKKIKEKYKLPDRFILYIGNLKPHKNVETLVKAMRFIDGKVKLVINGTINKSISEILDKFNLLEKVKFIGYVNEDELPLLYNLASVFVFPSLYEGFGLPPLEAAVCGCKVIISDISSLSEIMSDYGVKVNPLDSKGMAREIKKILENSSIDICNKEKETFVQKYSWNKTSSKTLEIYKEINKEFL
MGSDKIHHHHHHMTQQNGKVYLVGAGPGDVAYLTVKAYNLLATAQVLVYDALVDEQLLQCVSPDCLKLDVGKRGGKPSTPQADINHLLVKYCQEGALVVRLKSGDPFIFGRCTSEIEALKAAGCKFEVVPGISSSIAAPLLAGIPLTDPVMSRCFAVLTAHEPEVLDWEALSRLDTLVILMGGKNLADIINELLRRGQSHLTPIAIIRWAGTPSQQIWTGQLGDILEQTRGLSLSPAVIVIGEVVGLRKYLQPEKIFPENSTTPMSSNQPLTGKTILVTRSSGQSSQFSDRLTTLGATVIEMPALEIGSPSSWEELDQAIANLSQFEWLILTSTNGVDYFFERLNLQGKDTRALAGVKIAVVGEKTSQSLKQRGIQADFIPPNFVADSLVEHFPESLLNKKILFPRVESGGREILVKELSAKGAEVIEVAAYQSCCPSSIPPAAELALKNHTIDIITFASSKTVQFFHQLVDNIFPHNIPNTLAGICIASIGPQTSKTCHTLLGRVDVEAEEYTLDGLTQSIINWALKV
MGSDKIHHHHHHMTQTQPKFLTIYNTLYKEIQIGKYPSGHALPTEKELCARFDVSRMTLRQAIKLLAEDGIVESTRGKGHFVIPQTNAQHASSMDQFKHPLDQILLARVSMSSINYRVDLESEYTNHLFANHPSAVIAMERYYQKKDNHSKQADAFCFTFIPLNVIDTFKVNTQNEDDMKTFVEQTIYSNAYQSDLKMSITKAPRFKNHSHVFDGDTHCWLIIETLYAQTPYPIMINKWYIPQEISELTLTRIRQSDY
MGSDKIHHHHHHMTQVIPPRCDTCACDDADWCHLQETTKLLLLATAQIELSLTDGDHNVTGLGQLFTQMAGHLTEVNRHLHGTADTPAAILAHSDSLMQAIDSGVMAFQFYDRISQRLNHVITALSLMEAMLGDEQRRHSQAAWTNLQGEIQAHYSLDCERQMFAALLEGVPIHEALNAYRETHLHQTKQDVELF
MGSDKIHHHHHHMTRSEAQGRLTGLAPVSVIDIGSNSVRLVVYEGLSRAPAVLFNEKVLCGLGKGLALTGRMHEEGVTRALMALRRFHVLSEQAQAQKLYVLATAAAREAENGPDFIREAEAILGCEIEVLSGEKEALYSAYGVISGFYQPDGIAGDLGGGSLELIDIKDKSCGEGITLPLGGLRLSEQSDGSLEKAATIARKHVKSFAKLLAAGEGRTFYAVGGTWRNIAKLHMEISGYPLHMMQGYELPLEEMLNFLEEVIVSRDSKDPAWQAVSKNRRSLLPFGAIAMREVLRAMKPAKIAFSAQGVREGYLYSLLTEAERESDPLLVAADELAILRARSPEHARELADWSGRTFPVFGIDETEEESRYRQAACLLADISWRAHPDYRGLQALNIIAHSSFVAITHPGRAYIALANYYRFEGLNDNGTTEPLAAMAGERLQELGKLLGGLLRVVYLFSASMPGVVDHLKFRKSDNPDIDLEFVVPHDYCDFAGERLDGRLQQLAKLTGKRLAFVFE
MGSDKIHHHHHHMTSADNILAHASAMRQFSQFAGVAGLDLRRACPPDVYAFVEQAQDAEWLPATAHVDVLQAAAIASGRADLGVAFAMWCNIRGFGPVSLLWDHCTTVDEASRITRRYMHLESAAMRSSTDTDGHEAALRHILMVPARFGGSQFLQATLALQLRIIRMLLGEEWTPIRLELDHPAPPSYRYHQAVFRCPIEFEADRCALVFRKSDLHRPSLRGNANMVQYLERQLAHADSHWPGDLVQQIRYFVAANLTERKANLAHVSGLAGLSSQSLQRRLAERGTTFATILEEVRKQTADEYFRTARRPNLTELSHRLGYTDASAASRFLRQHMSTGARALMAQVRPGRGRPGSARALAAEA
